Consider five molecules from patent US20210032299A1 (Eli Lilly, published 2021).

Test [1] concerns the target T1, human glucose-dependent insulinotropic polypeptide (GIP) receptor (human, UniProt P48546 22-466).
T1 construct: whole, on cells; Assayed as crude membranes of stably transfected CHO cells; also called hGIPR; human GIP receptor
T1 sequence (looked up): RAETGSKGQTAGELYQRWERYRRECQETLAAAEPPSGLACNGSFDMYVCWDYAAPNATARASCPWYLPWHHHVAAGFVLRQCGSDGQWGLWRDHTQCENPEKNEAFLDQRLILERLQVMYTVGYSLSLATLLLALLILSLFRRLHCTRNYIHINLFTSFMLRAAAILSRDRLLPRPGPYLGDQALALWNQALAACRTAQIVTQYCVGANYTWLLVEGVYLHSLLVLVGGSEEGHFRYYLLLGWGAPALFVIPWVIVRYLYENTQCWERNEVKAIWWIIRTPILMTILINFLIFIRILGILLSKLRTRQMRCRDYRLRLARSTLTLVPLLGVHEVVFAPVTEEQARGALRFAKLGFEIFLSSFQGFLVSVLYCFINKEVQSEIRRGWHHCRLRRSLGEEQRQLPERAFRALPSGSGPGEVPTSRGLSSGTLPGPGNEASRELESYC
The test can be described thus: SPA, displacement of [125I]-GIP from hGIPR membranes, 0.1% bacitracin. (Displacement assays read how much labelled ligand stays bound in the presence of the test substance.)

Test [2] has as its target T2, human GLP-1 receptor (human, UniProt P43220 24-463).
T2 construct: whole, on cells; Assayed as crude membranes of stably transfected HEK293 cells; also called hGLP1R; hGLP-1R
The test can be described thus: SPA, displacement of [125I]-GLP-1 from hGLP-1R membranes, 0.1% bacitracin. In a few lines: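 Binding buffer: 25 mM HEPES pH 7.4, 2.5 mM CaCl₂, 1 mM MgCl₂, 0.1% bacitracin, 0.003% Tween-20, protease inhibitors without EDTA. Four-parameter nonlinear regression; Kᵢ given as geometric mean ± SEM, n = independent replicates run on different days.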

Test [3] concerns the target T3, human glucagon receptor (human, UniProt P47871 26-477).
T3 construct: whole, on cells; Assayed as crude membranes of stably transfected HEK293 cells; also called hGcgR; GcgR
The test can be described thus: SPA, displacement of [125I]-Gcg from hGcgR membranes, 0.1% bacitracin. Here is the method:
The binding buffer contains 25 mM 4-(2-hydroxyethyl)-1-piperazineethanesulfonic acid (HEPES), pH 7.4, 2.5 mM CaCl₂), 1 mM MgCl₂, 0.1% (w/v) bacitracin (Research Products), 0.003% (w/v) Polyoxyethylenesorbitan monolaurate (TWEEN®-20), and Roche Complete™ Protease Inhibitors without EDTA. […] Plates are sealed and mixed on a plate shaker (setting 6) for 1 minute and read with a PerkinElmer Trilux MicroBeta® scintillation counter after 12 hours of incubation/settling time at room temperature.
Data are analyzed using four-parameter (curve maximum, curve minimum, […], Hill slope) nonlinear regression routines (Genedata Screener, version 12.0.4, Genedata AG, Basal, Switzerland). […] Values for Kᵢ are reported as the geometric mean, with error expressed as the standard error of the mean (SEM) and n is equal to the number of independent replicates (determined in assays performed on different days).

Starred links: 1 amine or outer side, 2 acyl side, 3 side chain; linkers in the order of their positions; H or OH if unused. Non-standard residues stand in square brackets, D forms with d. Groups on a side chain read outwards from the residue. No end group written: not given here. *: point of attachment. C20 diacid = O=C(O)CCCCCCCCCCCCCCCCCCC(=O)*; γGlu = O=C(O)[C@H](CCC(=O)[*:2])N[*:1]; 4Pal = N[C@@H](Cc1ccncc1)C(=O)O; αMeL = CC(C)C[C@](C)(N)C(=O)O; AEEA = NCCOCCOCC(=O)O; Aib = CC(C)(N)C(=O)O

T3 sequence (P47871 26-477): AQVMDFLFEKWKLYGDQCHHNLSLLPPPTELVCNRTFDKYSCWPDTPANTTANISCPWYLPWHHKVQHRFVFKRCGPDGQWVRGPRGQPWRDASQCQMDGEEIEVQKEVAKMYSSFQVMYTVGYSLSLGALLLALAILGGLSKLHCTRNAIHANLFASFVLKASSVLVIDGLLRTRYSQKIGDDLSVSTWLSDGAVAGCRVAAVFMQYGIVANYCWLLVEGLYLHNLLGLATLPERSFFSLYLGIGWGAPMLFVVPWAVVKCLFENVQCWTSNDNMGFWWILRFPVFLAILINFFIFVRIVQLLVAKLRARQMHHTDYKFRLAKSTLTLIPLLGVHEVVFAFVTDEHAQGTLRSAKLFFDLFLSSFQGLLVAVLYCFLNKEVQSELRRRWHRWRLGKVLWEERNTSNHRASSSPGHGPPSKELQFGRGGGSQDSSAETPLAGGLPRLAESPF

B1: Example 46 (peptide)
peptide: Y[Aib]EGTFISDYSI[αMeL]LDKK([AEEA-AEEA-γGlu-C20 diacid])HQ[Aib]DFVE[4Pal]LLEQGPSSGAPPPS-NH2
modifications: N-terminus assumed
SMILES: CC[C@H](C)[C@H](NC(=O)[C@H](Cc1ccccc1)NC(=O)[C@@H](NC(=O)CNC(=O)[C@H](CCC(=O)O)NC(=O)C(C)(C)NC(=O)[C@@H](N)Cc1ccc(O)cc1)[C@@H](C)O)C(=O)N[C@@H](CO)C(=O)N[C@@H](CC(=O)O)C(=O)N[C@@H](Cc1ccc(O)cc1)C(=O)N[C@@H](CO)C(=O)N[C@H](C(=O)N[C@@](C)(CC(C)C)C(=O)N[C@@H](CC(C)C)C(=O)N[C@@H](CC(=O)O)C(=O)N[C@@H](CCCCN)C(=O)N[C@@H](CCCCNC(=O)COCCOCCNC(=O)COCCOCCNC(=O)CC[C@H](NC(=O)CCCCCCCCCCCCCCCCCCC(=O)O)C(=O)O)C(=O)N[C@@H](Cc1c[nH]cn1)C(=O)N[C@@H](CCC(N)=O)C(=O)NC(C)(C)C(=O)N[C@@H](CC(=O)O)C(=O)N[C@@H](Cc1ccccc1)C(=O)N[C@H](C(=O)N[C@@H](CCC(=O)O)C(=O)N[C@@H](Cc1ccncc1)C(=O)N[C@@H](CC(C)C)C(=O)N[C@@H](CC(C)C)C(=O)N[C@@H](CCC(=O)O)C(=O)N[C@@H](CCC(N)=O)C(=O)NCC(=O)N1CCC[C@H]1C(=O)N[C@@H](CO)C(=O)N[C@@H](CO)C(=O)NCC(=O)N[C@@H](C)C(=O)N1CCC[C@H]1C(=O)N1CCC[C@H]1C(=O)N1CCC[C@H]1C(=O)N[C@@H](CO)C(N)=O)C(C)C)[C@@H](C)CC
The term Ki denotes a measure of affinity in units of concentration, obtained from inhibition or displacement. For B1, the results for the Ki in test [1], in test [2] and in test [3] were 0.0319 nM, 744 nM and 435 nM, respectively.

B2: Example 58 (peptide)
peptide: Y[Aib]EGTFISDYSI[αMeL]LDKK([AEEA-AEEA-γGlu-C20 diacid])HQ[Aib]EFVE[4Pal]LLATGPSSGAPPPS-NH2
modifications: N-terminus assumed
SMILES: CC[C@H](C)[C@H](NC(=O)[C@H](Cc1ccccc1)NC(=O)[C@@H](NC(=O)CNC(=O)[C@H](CCC(=O)O)NC(=O)C(C)(C)NC(=O)[C@@H](N)Cc1ccc(O)cc1)[C@@H](C)O)C(=O)N[C@@H](CO)C(=O)N[C@@H](CC(=O)O)C(=O)N[C@@H](Cc1ccc(O)cc1)C(=O)N[C@@H](CO)C(=O)N[C@H](C(=O)N[C@@](C)(CC(C)C)C(=O)N[C@@H](CC(C)C)C(=O)N[C@@H](CC(=O)O)C(=O)N[C@@H](CCCCN)C(=O)N[C@@H](CCCCNC(=O)COCCOCCNC(=O)COCCOCCNC(=O)CC[C@H](NC(=O)CCCCCCCCCCCCCCCCCCC(=O)O)C(=O)O)C(=O)N[C@@H](Cc1c[nH]cn1)C(=O)N[C@@H](CCC(N)=O)C(=O)NC(C)(C)C(=O)N[C@@H](CCC(=O)O)C(=O)N[C@@H](Cc1ccccc1)C(=O)N[C@H](C(=O)N[C@@H](CCC(=O)O)C(=O)N[C@@H](Cc1ccncc1)C(=O)N[C@@H](CC(C)C)C(=O)N[C@@H](CC(C)C)C(=O)N[C@@H](C)C(=O)N[C@H](C(=O)NCC(=O)N1CCC[C@H]1C(=O)N[C@@H](CO)C(=O)N[C@@H](CO)C(=O)NCC(=O)N[C@@H](C)C(=O)N1CCC[C@H]1C(=O)N1CCC[C@H]1C(=O)N1CCC[C@H]1C(=O)N[C@@H](CO)C(N)=O)[C@@H](C)O)C(C)C)[C@@H](C)CC
Regarding B2, the inhibitory constant (Ki) in test [1] came to 0.0324 nM; in test [2], 459 nM; in test [3] it was 418 nM.

B3: Example 47 (peptide)
peptide: Y[Aib]EGTFISDYSI[αMeL]LDKK([AEEA-AEEA-γGlu-C20 diacid])HQ[Aib]DFVE[4Pal]LLEGGPSSGAPPPS-NH2
modifications: N-terminus assumed
SMILES: CC[C@H](C)[C@H](NC(=O)[C@H](Cc1ccccc1)NC(=O)[C@@H](NC(=O)CNC(=O)[C@H](CCC(=O)O)NC(=O)C(C)(C)NC(=O)[C@@H](N)Cc1ccc(O)cc1)[C@@H](C)O)C(=O)N[C@@H](CO)C(=O)N[C@@H](CC(=O)O)C(=O)N[C@@H](Cc1ccc(O)cc1)C(=O)N[C@@H](CO)C(=O)N[C@H](C(=O)N[C@@](C)(CC(C)C)C(=O)N[C@@H](CC(C)C)C(=O)N[C@@H](CC(=O)O)C(=O)N[C@@H](CCCCN)C(=O)N[C@@H](CCCCNC(=O)COCCOCCNC(=O)COCCOCCNC(=O)CC[C@H](NC(=O)CCCCCCCCCCCCCCCCCCC(=O)O)C(=O)O)C(=O)N[C@@H](Cc1c[nH]cn1)C(=O)N[C@@H](CCC(N)=O)C(=O)NC(C)(C)C(=O)N[C@@H](CC(=O)O)C(=O)N[C@@H](Cc1ccccc1)C(=O)N[C@H](C(=O)N[C@@H](CCC(=O)O)C(=O)N[C@@H](Cc1ccncc1)C(=O)N[C@@H](CC(C)C)C(=O)N[C@@H](CC(C)C)C(=O)N[C@@H](CCC(=O)O)C(=O)NCC(=O)NCC(=O)N1CCC[C@H]1C(=O)N[C@@H](CO)C(=O)N[C@@H](CO)C(=O)NCC(=O)N[C@@H](C)C(=O)N1CCC[C@H]1C(=O)N1CCC[C@H]1C(=O)N1CCC[C@H]1C(=O)N[C@@H](CO)C(N)=O)C(C)C)[C@@H](C)CC
Take B3: the Ki in test [1] was 0.0452 nM; in test [2] it was 320 nM; in test [3], 175 nM.

B4: Example 57 (peptide)
peptide: Y[Aib]EGTFISDYSI[αMeL]LDKK([AEEA-AEEA-γGlu-C20 diacid])HQ[Aib]EFVE[4Pal]LLAQGPSSGAPPPS-NH2
modifications: N-terminus assumed
SMILES: CC[C@H](C)[C@H](NC(=O)[C@H](Cc1ccccc1)NC(=O)[C@@H](NC(=O)CNC(=O)[C@H](CCC(=O)O)NC(=O)C(C)(C)NC(=O)[C@@H](N)Cc1ccc(O)cc1)[C@@H](C)O)C(=O)N[C@@H](CO)C(=O)N[C@@H](CC(=O)O)C(=O)N[C@@H](Cc1ccc(O)cc1)C(=O)N[C@@H](CO)C(=O)N[C@H](C(=O)N[C@@](C)(CC(C)C)C(=O)N[C@@H](CC(C)C)C(=O)N[C@@H](CC(=O)O)C(=O)N[C@@H](CCCCN)C(=O)N[C@@H](CCCCNC(=O)COCCOCCNC(=O)COCCOCCNC(=O)CC[C@H](NC(=O)CCCCCCCCCCCCCCCCCCC(=O)O)C(=O)O)C(=O)N[C@@H](Cc1c[nH]cn1)C(=O)N[C@@H](CCC(N)=O)C(=O)NC(C)(C)C(=O)N[C@@H](CCC(=O)O)C(=O)N[C@@H](Cc1ccccc1)C(=O)N[C@H](C(=O)N[C@@H](CCC(=O)O)C(=O)N[C@@H](Cc1ccncc1)C(=O)N[C@@H](CC(C)C)C(=O)N[C@@H](CC(C)C)C(=O)N[C@@H](C)C(=O)N[C@@H](CCC(N)=O)C(=O)NCC(=O)N1CCC[C@H]1C(=O)N[C@@H](CO)C(=O)N[C@@H](CO)C(=O)NCC(=O)N[C@@H](C)C(=O)N1CCC[C@H]1C(=O)N1CCC[C@H]1C(=O)N1CCC[C@H]1C(=O)N[C@@H](CO)C(N)=O)C(C)C)[C@@H](C)CC
B4: the values for the inhibitory constant (Ki) in test [1], in test [2] and in test [3] were 0.0154 nM, 280 nM and 422 nM, respectively.

B5: Example 52 (peptide)
peptide: Y[Aib]EGTFISDYSI[αMeL]LDKK([AEEA-AEEA-γGlu-C20 diacid])HQ[Aib]EFVE[4Pal]LLAGGPSSGAPPPS-NH2
modifications: N-terminus assumed
SMILES: CC[C@H](C)[C@H](NC(=O)[C@H](Cc1ccccc1)NC(=O)[C@@H](NC(=O)CNC(=O)[C@H](CCC(=O)O)NC(=O)C(C)(C)NC(=O)[C@@H](N)Cc1ccc(O)cc1)[C@@H](C)O)C(=O)N[C@@H](CO)C(=O)N[C@@H](CC(=O)O)C(=O)N[C@@H](Cc1ccc(O)cc1)C(=O)N[C@@H](CO)C(=O)N[C@H](C(=O)N[C@@](C)(CC(C)C)C(=O)N[C@@H](CC(C)C)C(=O)N[C@@H](CC(=O)O)C(=O)N[C@@H](CCCCN)C(=O)N[C@@H](CCCCNC(=O)COCCOCCNC(=O)COCCOCCNC(=O)CC[C@H](NC(=O)CCCCCCCCCCCCCCCCCCC(=O)O)C(=O)O)C(=O)N[C@@H](Cc1c[nH]cn1)C(=O)N[C@@H](CCC(N)=O)C(=O)NC(C)(C)C(=O)N[C@@H](CCC(=O)O)C(=O)N[C@@H](Cc1ccccc1)C(=O)N[C@H](C(=O)N[C@@H](CCC(=O)O)C(=O)N[C@@H](Cc1ccncc1)C(=O)N[C@@H](CC(C)C)C(=O)N[C@@H](CC(C)C)C(=O)N[C@@H](C)C(=O)NCC(=O)NCC(=O)N1CCC[C@H]1C(=O)N[C@@H](CO)C(=O)N[C@@H](CO)C(=O)NCC(=O)N[C@@H](C)C(=O)N1CCC[C@H]1C(=O)N1CCC[C@H]1C(=O)N1CCC[C@H]1C(=O)N[C@@H](CO)C(N)=O)C(C)C)[C@@H](C)CC
B5: the Ki in test [1] was determined as 0.0372 nM; in test [2] it was 128 nM; in test [3], 114 nM.
